This series concerns the molecule itself. Briefly: crystal structure; crystals by hanging-drop vapour diffusion at 22°C (15% PEG 3350, 0.2 M sodium formate, 0.1 M HEPES pH 7.5); free enzyme at 2.3 Å and putrescine-soaked at 2.1 Å; four molecules in the asymmetric unit; dimer interface analysed with PISA.

B1: YgjG putrescine aminotransferase from Escherichia coli (enzyme, UniProt P42588 1-459, looked up)
chain: MNRLPSSASALACSAHALNLIEKRTLDHEEMKALNREVIEYFKEHVNPGFLEYRKSVTAGGDYGAVEWQAGSLNTLVDTQGQEFIDCLGGFGIFNVGHRNPVVVSAVQNQLAKQPLHSQELLDPLRAMLAKTLAALTPGKLKYSFFCNSGTESVEAALKLAKAYQSPRGKFTFIATSGAFHGKSLGALSATAKSTFRKPFMPLLPGFRHVPFGNIEAMRTALNECKKTGDDVAAVILEPIQGEGGVILPPPGYLTAVRKLCDEFGALMILDEVQTGMGRTGKMFACEHENVQPDILCLAKALGGGVMPIGATIATEEVFSVLFDNPFLHTTTFGGNPLACAAALATINVLLEQNLPAQAEQKGDMLLDGFRQLAREYPDLVQEARGKGMLMAIEFVDNEIGYNFASEMFRQRVLVAGTLNNAKTIRIEPPLTLTIEQCELVIKAARKALAAMRVSVEEA
modifications: PLP covalently linked to Lys300 via a Schiff base linkage (free enzyme)
notes: YgjG putrescine aminotransferase (EC 2.6.1.82), Escherichia coli; The seven N-terminal and one C-terminal residues and the His tag are not visible in the electron density; also called PATase; source: E. coli B834(DE3), purified (Ni-NTA, ion-exchange chromatography, size-exclusion chromatography); not shown: His6, C-terminal, kept
With B1, the stoichiometry N (as a rule, the number of molecules, sites or subunits per partner or assembly) was determined as 2.

The values are drawn from publication PMC4244111, “Structure of Putrescine Aminotransferase from Escherichia coli Provides Insights into the Substrate Specificity among Class III Aminotransferases” (PLoS ONE, 2014).
